Results from article PMC4351158 (Structure (London, England : 1993), 2015).

B1: H198P/E230A (protein, UniProt P0AEE3 1-355, looked up, variant H198P E230A)
Serine endoprotease DegS: MFVKLLRSVAIGLIVGAILLVAMPSLRSLNPLSTPQFDSTDETPASYNLAVRRAAPAVVNVYNRGLNTNSHNQLEIRTLGSGVIMDQRGYIITNKHVINDADQIIVALQDGRVFEALLVGSDSLTDLAVLKINATGGLPTIPINARRVPHIGDVVLAIGNPYNLGQTITQGIISATGRIGLNPTGRQNFLQTDASINPGNSGGALVNSLGELMGINTLSFDKSNDGETPAGIGFAIPFQLATKIMDKLIRDGRVIRGYIGIGGREIAPLHAQGGGIDQLQGIVVNEVSPDGPAANAGIQVNDLIISVDNKPAISALETMDQVAEIRPGSVIPVVVMRDDKQLTLQVTIQEYPATN
B2: WT DegS: Wild-type E. coli DegS (residues 27–355) with N-terminal His6 tag replacing the membrane anchor (protein)
chain: RSLNPLSTPQFDSTDETPASYNLAVRRAAPAVVNVYNRGLNTNSHNQLEIRTLGSGVIMDQRGYIITNKHVINDADQIIVALQDGRVFEALLVGSDSLTDLAVLKINATGGLPTIPINARRVPHIGDVVLAIGNPYNLGQTITQGIISATGRIGLNPTGRQNFLQTDASINHGNSGGALVNSLGELMGINTLSFDKSNDGETPEGIGFAIPFQLATKIMDKLIRDGRVIRGYIGIGGREIAPLHAQGGGIDQLQGIVVNEVSPDGPAANAGIQVNDLIISVDNKPAISALETMDQVAEIRPGSVIPVVVMRDDKQLTLQVTIQEYPATN
modifications: left off: His6, N-terminal, state not stated

Columns and labels:
[1] = tested on: periplasmic domain of RseA; test: Cleavage of 35S-labeled RseA periplasmic domain by DegS variants; assay type: biochemical, E. coli; conditions: H198P background; compared to H198P
DegS = conditions: substrate-saturated; ref Sohn and Sauer, 2009; cited from earlier work

Molecule | YYF-stimulated cleavage activity, in words [1] | DegS in the active conformation (DegS)
B1 | activity within error of H198P | –
B2 | – | ~ 0.3%
